Reference: the RNAGym collection of RNA variant scans (doi:10.1093/molbev/msab373)

B1: Azoarcus group I ribozyme (parent)
chain: GUGCCUUGCGCCGGGAAACCACGCAAGGGAUGGUGUCAAAUUCGGCGAAACCUAAGCGCCCGCCCGGGCGUAUGGCAACGCCGAGCCAAGCUUCGGCGCCUGCGCCGAUGAAGGUGUAGAGACUAGACGGCACCCACCUAAGGCAAACGCUAUGGUGAAGGCAUAGUCCAGGGAGUGGCGAAAGUCACACAAACCGG

Variants of: B1
Experiment: reverse-splicing fitness (ratio to wild type); higher = more active; in vitro selection; Mg2+ level not given
How it was run: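 An in vitro group I ribozyme library with randomized positions was T7-transcribed and gel-purified. In triplicate, 10 pmol RNA in EPPS pH 7.5 was reacted with 50 pmoles of a 30-nt RNA substrate for 1 h at 37 °C across several added MgCl2 levels (1–48 mM), then stopped with EDTA. Products were reverse transcribed from a substrate-complementary primer, PCR-amplified and sequenced (HiSeq 4000). Fitness is a variant's read proportion after selection over that before, normalised to wild type.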

Compared with C82A A111U A120G A145U C150A C169A, C82A A111U A120G A145U C150A C169G is lower in reverse-splicing fitness: 0.00942 for the first, 0.00859 for the second.

Going from C82A A111U A120G A145U C150A C169U to C82A A111U A120C A145U C150A C169A U176G, the reverse-splicing fitness rises from 0.0069 to 0.00919.

First: C82A A111U A120C A145U C150A C169A U176C
Second: C82A A111U A120C A145U C150A C169A U176A
The reverse-splicing fitness of the first is lower: 0.0189 for the first, 0.0231 for the second.

Compared with C82A A111U A120C U176C, C82A A111U A120C U176A is lower in reverse-splicing fitness: 0.0279 for the first, 0.0152 for the second.

First: C82A A111U A120C U176G
Second: C82A A111U A120C C169A U176C
The reverse-splicing fitness of the first is lower: 0.00616 for the first, 0.0277 for the second.

Compared with C82A A111U A120C C169A U176G, C82A A111U A120C C169A U176A is higher in reverse-splicing fitness: 0.00734 for the first, 0.0222 for the second.

First: C82A A111U A120G A145G C150G C169U U176C
Second: C82A A111U A120G A145G C150G C169U U176G
The reverse-splicing fitness of the first is higher: 0.013 for the first, 0.00707 for the second.

Compared with C82A A111U A120G A145G C150G C169U U176A, C82A A111U A120C C150G C169G U176C is lower in reverse-splicing fitness: 0.0121 for the first, 0.00529 for the second.

First: C82A A111U A120C C150G C169G U176G
Second: C82A A111U A120C C150G C169G U176A
The reverse-splicing fitness of the first is lower: 0.00574 for the first, 0.00746 for the second.

First: C82A A111U A120G A145G C150A C169G U176C
Second: C82A A111U A120G A145G C150A C169G U176A
The reverse-splicing fitness of the first is higher: 0.0255 for the first, 0.0172 for the second.

Compared with C82A A111U A120G A145G C150A C169G U176G, C82A A111U A120G A145C C150A U176C is higher in reverse-splicing fitness: 0.00589 for the first, 0.0098 for the second.

Going from C82A A111U A120G A145C C150A U176G to C82A A111U A120G A145C C150A U176A, the reverse-splicing fitness rises from 0.00549 to 0.00932.

Compared with C82A A111U A120C A145U C150A C169G U176A, C82A A111U A120C A145U C150A C169G U176C is higher in reverse-splicing fitness: 0.0219 for the first, 0.0263 for the second.

First: C82A A111U A120C A145U C150A C169G U176G
Second: C82A A111U A120C A145G C169G U176C
The reverse-splicing fitness of the first is lower: 0.00723 for the first, 0.0355 for the second.

First: C82A A111U A120C A145G C169G U176G
Second: C82A A111U A120C A145G C169G U176A
The reverse-splicing fitness of the first is lower: 0.00647 for the first, 0.0259 for the second.

Going from C82A A111U A120G A145G to C82A A111U A120G A145U, the reverse-splicing fitness rises from 0.0152 to 0.0153.

First: C82A A111U A120G A145C
Second: C82A A111U A120G A145G C150U C169G U176G
The reverse-splicing fitness of the first is higher: 0.0126 for the first, 0.00517 for the second.

First: C82A A111U A120G A145G C150U C169G U176C
Second: C82A A111U A120G A145G C150U C169G U176A
The reverse-splicing fitness of the first is higher: 0.0178 for the first, 0.0133 for the second.

First: C82A A111U A120G A145C C150G U176G
Second: C82A A111U A120G A145C C150G U176C
The reverse-splicing fitness of the first is lower: 0.00318 for the first, 0.00759 for the second.

Compared with C82A A111U A120G A145C C150G U176A, C82A A111U A120G A145C C150G C169A U176G is higher in reverse-splicing fitness: 0.00504 for the first, 0.00554 for the second.

Going from C82A A111U A120G A145C C150G C169A U176A to C82A A111U A120G A145C C150G C169A U176C, the reverse-splicing fitness falls from 0.00838 to 0.00639.

Going from C82A A111U A120C A145U C150A U176A to C82A A111U A120C A145U C150A U176C, the reverse-splicing fitness rises from 0.0108 to 0.0223.

Going from C82A A111U A120C A145U C150A U176G to C82A A111U A120C A145G C150U C169G, the reverse-splicing fitness rises from 0.00762 to 0.00957.

First: C82A A111U A120C A145G C150U C169U
Second: C82A A111U A120G A145U C169A U176A
The reverse-splicing fitness of the first is higher: 0.0127 for the first, 0.012 for the second.

First: C82A A111U A120C A145U C150G C169A U176G
Second: C82A A111U A120C A145U C150G C169A U176C
The reverse-splicing fitness of the first is lower: 0.00766 for the first, 0.0116 for the second.

Going from C82A A111U A120C A145U C150G C169A U176A to C82A A111U A120G A145G C150G C169U, the reverse-splicing fitness falls from 0.0117 to 0.00901.

First: C82A A111U A120G A145G C150G C169A
Second: C82A A111U A120G A145G C150G C169G
The reverse-splicing fitness of the first is higher: 0.0092 for the first, 0.00797 for the second.

Going from C82A A111U A120G A145U C169A to C82A A111U A120G A145G U176A, the reverse-splicing fitness rises from 0.00877 to 0.0122.

Compared with C82A A111U A120G A145G U176G, C82A A111U A120G A145G U176C is higher in reverse-splicing fitness: 0.00714 for the first, 0.0211 for the second.

First: C82A A111U A120G A145C C150U U176G
Second: C82A A111U A120G A145C C150U U176A
The reverse-splicing fitness of the first is lower: 0.00589 for the first, 0.0105 for the second.

Going from C82A A111U A120G A145C C150U U176C to C82A A111U A120G A145U C150G U176A, the reverse-splicing fitness falls from 0.0114 to 0.00602.

First: C82A A111U A120G A145U C150G U176G
Second: C82A A111U A120G A145U C150G U176C
The reverse-splicing fitness of the first is lower: 0.00424 for the first, 0.00834 for the second.

Compared with C82A A111U A120C C150U C169U U176A, C82A A111U A120C C150U C169U U176C is lower in reverse-splicing fitness: 0.0156 for the first, 0.0145 for the second.

Compared with C82A A111U A120C C150U C169U U176G, C82A A111U A120G A145U C150U U176A is higher in reverse-splicing fitness: 0.00737 for the first, 0.0102 for the second.

Compared with C82A A111U A120G A145U C150U U176G, C82A A111U A120G A145U C150U U176C is higher in reverse-splicing fitness: 0.00672 for the first, 0.0151 for the second.

First: C82A A111U A120G A145C C150U C169U U176A
Second: C82A A111U A120G A145C C150U C169U U176C
The reverse-splicing fitness of the first is higher: 0.0202 for the first, 0.0127 for the second.

First: C82A A111U A120G A145C C150U C169U U176G
Second: C82A A111U A120G A145C C169U U176G
The reverse-splicing fitness of the first is higher: 0.00596 for the first, 0.00478 for the second.

Going from C82A A111U A120G A145C C169U U176A to C82A A111U A120G A145C C169U U176C, the reverse-splicing fitness falls from 0.0212 to 0.0136.

Going from C82A A111U A120C A145U C150U C169A U176G to C82A A111U A120C A145U C150U C169A U176C, the reverse-splicing fitness rises from 0.00837 to 0.0168.

Going from C82A A111U A120C A145U C150U C169A U176A to C82A A111U A120C C169U U176C, the reverse-splicing fitness falls from 0.0216 to 0.0158.

Compared with C82A A111U A120C C169U U176G, C82A A111U A120C C169U U176A is higher in reverse-splicing fitness: 0.00659 for the first, 0.0177 for the second.

With C82A A111U A120C C150G C169A U176G the reverse-splicing fitness was 0.00717.
